From patent publication US20240400689A1 (ANTENGENE BIOLOGICS, published 2024)
Residue numbers refer to the chain shown, from its start. Like-named read-outs stand apart in the source and are kept apart here.

Assays:
[1] = molecular target: T1, HUMAN B7H3 (Biacore analyte) (human, UniProt Q5ZPR3 29-461, limits assumed); assay: SPR, Biacore 8K, antibody captured, B7H3 as analyte, 1:1 binding
T1 construct: also called hB7H3
T1 sequence (looked up): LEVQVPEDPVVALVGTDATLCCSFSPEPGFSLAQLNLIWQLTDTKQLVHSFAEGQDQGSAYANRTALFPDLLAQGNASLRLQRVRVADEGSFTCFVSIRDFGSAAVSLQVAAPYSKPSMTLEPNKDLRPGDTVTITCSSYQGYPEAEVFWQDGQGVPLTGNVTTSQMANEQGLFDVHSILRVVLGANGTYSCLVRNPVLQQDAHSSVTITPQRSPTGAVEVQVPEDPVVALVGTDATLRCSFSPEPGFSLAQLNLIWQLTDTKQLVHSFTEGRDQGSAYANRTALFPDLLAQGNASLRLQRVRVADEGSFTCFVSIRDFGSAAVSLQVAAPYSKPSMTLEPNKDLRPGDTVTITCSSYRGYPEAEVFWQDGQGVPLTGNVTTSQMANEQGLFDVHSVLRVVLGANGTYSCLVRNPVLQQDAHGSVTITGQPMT

human CD276 protein [2] = molecular target: T2, human CD276 protein (human, UniProt Q5ZPR3 29-534); assay: FACS on SKOV3 cells
T2 construct: whole, on cells; for SKOV3 and the other cancer lines the protein is the cells' own; also called B7-H3; B7H3
T2 sequence (looked up): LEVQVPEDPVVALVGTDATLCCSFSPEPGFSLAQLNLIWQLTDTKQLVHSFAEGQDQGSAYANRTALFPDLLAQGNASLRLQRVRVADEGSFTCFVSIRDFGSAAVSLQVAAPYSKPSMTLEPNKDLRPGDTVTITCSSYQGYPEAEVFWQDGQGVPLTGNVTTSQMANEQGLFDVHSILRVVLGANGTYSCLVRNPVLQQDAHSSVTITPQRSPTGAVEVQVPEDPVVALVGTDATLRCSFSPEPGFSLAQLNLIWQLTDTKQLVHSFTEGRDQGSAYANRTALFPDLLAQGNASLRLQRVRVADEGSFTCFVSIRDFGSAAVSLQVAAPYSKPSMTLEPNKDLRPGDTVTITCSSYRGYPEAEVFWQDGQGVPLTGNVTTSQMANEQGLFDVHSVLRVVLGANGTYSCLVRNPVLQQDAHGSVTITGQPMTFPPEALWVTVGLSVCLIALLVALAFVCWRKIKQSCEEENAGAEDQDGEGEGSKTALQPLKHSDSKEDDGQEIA
Outline: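 Human IgG1 chimeric antibodies were tested for binding to trypsin-detached SKOV3 ovarian cancer cells by flow cytometry, with cells washed in FACS buffer and kept in the dark before acquisition. Titration read-out was MFI plotted against antibody concentration (nM).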

human CD276 protein [3] = molecular target: T2, human CD276 protein; assay: FACS titration on SKOV3 cells (MFI against Conc. (nM)); unit taken from the concentration axis
Excerpt: Sequences of 31 mouse antibodies from Table 5 were selected to generate and produce human IgG1 chimeric antibodies. The binding affinity of these antibodies and bench mark antibody, Enoblituzumab (see U.S. Pat. No. 8,802,091, MGA271, specifically with a construct designated as hBRCA84D-2) and MGC018 (an antibody-drug-conjugate, in which the mAb MGA017 (human IgG1) is conjugated via a cleavable linker to the prodrug seco-DUocarmycin hydroxyBenzamide Azaindole (DUBA), an alkylating agent that can damage DNA in both dividing and non-dividing cells, thereby causing cell death) with human patient derived ovarian cancer cell line, SKOV3, was determined by FACS analysis.
1. Digested cells using Trypsin (1×); Centrifuged the harvested cells at 300 g for 3 min and discarding the supernatant. […] 2. Washed the cells 2 times with FACS buffer by centrifuging at 300 g for 3 min and discarding the supernatant. [0445] 3. […] Kept the cells in dark for FACS analysis.

human CD276 protein [4] = molecular target: T2, human CD276 protein; assay: cell-based or functional assay
human CD276 protein [5] = molecular target: T2, human CD276 protein; assay: cell-based or functional assay; remark: listed apart in the source
[6] = molecular target: T1, HUMAN B7H3 (Biacore analyte); assay: SPR, Biacore 8K, antibody captured, B7H3 as analyte, 1:1 binding; remark: listed apart in the source
human CD276 protein [7] = molecular target: T2, human CD276 protein; assay: cell-based or functional assay; remark: listed apart in the source

B1: 10-G6-C4-B2 (human IgG1 chimeric antibody) (antibody, V domains shown)
VH: EVQLVESGGGLVQPGGSLRLSCATSGFTLSDYYMSWVRQPPGKAPEWLGFMRNKANGYTTEYSASVRGRFTISRDTSQSIIYLQMNTLRAEDGATYYCVRDRDGRPFAYWGQGTLVTVSA
VL: DIVMTQSPSSLTVTAGEKVTMSCKSSQSLLNSINQKNFLTWYQQKPGQPPKLLIYWASTRESGVPDRFTGSGSGTDFTLTISSVQAEDLAIYYCQNDYTYPLTFGTGTKLELK
notes: human IgG1 chimeric antibody of the mouse clone
- Kd [1]: 0.785 nM
- koff [1]: 0.000198 s⁻¹
- kon [1]: 252000 M⁻¹ s⁻¹
- EC50 (human CD276 protein [2]): 0.822 µg/mL
- MFI (Max) (human CD276 protein [2]): 5640
- EC50 (human CD276 protein [3]): 2.33 nM
- IC50 of indirect ADC cytotoxicity on SKOV3 (human CD276 protein [4]): 0.008 nM
- EC50 of antibody induced CDC effect (human CD276 protein [5]): 2.74 nM
- Top cytotoxicity (%), CDC (human CD276 protein [5]): 93.5%
- Kd [6]: 0.415 nM
- koff [6]: 8.97e-05 s⁻¹
- kon [6]: 216000 M⁻¹ s⁻¹
- EC50 of antibody induced ADCC effect on SKOV3 (human CD276 protein [7]): 0.237 µg/mL

B2: mVH5-mVL4-10 (antibody, V domains shown)
VH: B1 VH with G57A, D103E
VL: B1 VL with S32A
- EC50 (human CD276 protein [3]): 2.76 nM

B3: hVH2-hVL1-10 (antibody, V domains shown)
VH: EVQLVESGGGLVQPGGSLRLSCATSGFTLSDYYMSWVRQAPGKGLEWVSFMRNKANGYTTEYSASVRGRFTISRDTSKSTIYLQMNSLRAEDTAVYYCVRDRDGRPFAYWGQGTLVTVSS
VL: DIVMTQSPDSLAVSLGERATINCKSSQSLLNSINQKNFLTWYQQKPGQPPKLLIYWASTRESGVPDRFSGSGSGTDFTLTISSLQAEDLAVYYCQNDYTYPLTFGQGTKLEIK
- EC50 (human CD276 protein [3]): 1.92 nM

B4: hVH4-hVL2-10 (antibody, V domains shown)
VH: B3 VH with V12I, A40P
VL: DIVMTQSPLSLPVTPGEPASISCKSSQSLLNSINQKNFLTWYLQKPGQSPQLLIYWASTRESGVPDRFSGSGSGTDFTLKISRVEAEDLGVYYCQNDYTYPLTFGQGTKLEIK
- EC50 (human CD276 protein [3]): 4.43 nM

B5: hVH3-hVL3-10 (antibody, V domains shown)
VH: B3 VH with S49G, T80S, R89K, A90T
VL: DIQMTQSPSSLSASVGDRVTITCKSSQSLLNSINQKNFLTWYQQKPGKAPKLLIYWASTRESGVPSRFSGSGSGTDFTLTISSLQPEDLATYYCQNDYTYPLTFGQGTKLEIK
- EC50 (human CD276 protein [3]): 2.75 nM

B6: hVH5-hVL1-10 (antibody, V domains shown)
VH: B3 VH with G16R, A23T, S49G, T80I, R89K, A90T
VL: B3 VL
- EC50 (human CD276 protein [3]): 2.63 nM

B7: hVH5-hVL3-10 (antibody, V domains shown)
VH: B3 VH with G16R, A23T, S49G, T80I, R89K, A90T
VL: B5 VL
- EC50 (human CD276 protein [3]): 2.98 nM

B8: hVH4-hVL1-10 (antibody, V domains shown)
VH: B3 VH with V12I, A40P
VL: B3 VL
- EC50 (human CD276 protein [3]): 1.9 nM
